Reference: the DeepSol protein solubility set

Experiment: soluble on expression in E. coli; label from the status in PepcDB or PDB records

Sequence	soluble on expression in E. coli
MAFEATKREWCELYTFFRLLTEGKVTLGTAKAKKGEIDWPIAMIQREEHDGTRCYYIEKEMVRIKGENSEKFVPREDFGIVADLILQAVKSSSEDEVTSPDGVEEFLDEVAIFDLEAKTEDRTDFYIAFWHPEAPLSGFSVRSRLGAMNPLLDGGRAANLKLEQSGVKFATPTVNKINALPEAPNEVAERMLLIERLGGVLKYSDVADRVFRSNLLMIDLHFPRVLTEMVRIMHLDDITRISELTEVIKQMNPLKIKDELVNKHGFYEFKVKQFLMALALGMRPAKIYTGQDSAVEGILLMDGSGEVLCYHKSEKPVMEDFLFLNTRLEKGSLDKDKYGFLERENGTYYFKLNAKIGLVKR	not soluble
MSLSRYEKIISARWIITVETDGEVLENHAIAIRDGKIAAIIPAADAAGLEADERLELPDHVLMPGLINLHGHSAMSLLRGLADDKALMDWLTNYIWPTEGKHVHDDFVFDGSLLAMGEMIRGGTTTINDMYFYNAAVARAGLASGMRTFVGCSILEFPTNYASNADDYIAKGMAERSQFLGEDLLTFTLAPHAPYTVSDDTFRKVVTLAEQEDMLIHCHIHETADEVNNSVKEHGQRPLARLQRLGLLSPRLVAAHMVHLNDAEVELAARHGLSTAHNPASNMKLASGISPVSKLMDAGVAVGIGTDGAASNNKLDMLAETRLAALLAKVGTLDPTSVPAAAAIRMATLNGARALGIADKVGSVKVGKQADLIALDLAQLETAPAFDPISHVVYAAGREQVSHVWVKGRALMRERKLTTLDESDLKARAGDWRNRILAKEGHHHHHH	soluble
MDFKQHIAIVPDYPKEGIVFKDITPLMNDGKAYKAATDAIVEYAKERDIDLVVGPEARGFIIGCPVSYALEVGFAPVRKLGKLPREVITVDYGKEYGKDVLTIHKDAIKPGQRVLITDDLLATGGTIEATIKLVEELGGVVAGIAFLVELTYLDGRKMLDGYDVLVLEKY	not soluble
MSLSTSPKPSPIPSPVLGQKPNASQSLLAWCREVTKNYRGVKITNFTTSWRNGLSFCAILHHFRPDLIDYKSLNPQDIKENNKKAYDGFASIGISRLLEPSDMVLLAIPDKLTVMTYLYQIRAHFSGQELNVVQIEENSSKSTYKVGNYETDTNSSVDQEKFYAELSDLKREGHHHHHH	soluble
MTHVTPFSNPFLLGFETIEKTLRRIGKADETYPAYNIERLHKNDDASHIRITLAVAGFKVNNLNILLDDNQLIIHGKQTDSQNHQYLYRGIAARQFQRTFVLVEGMHVTNAELKNGLLSINLYQPKTKKQMKQIPIKVSNKS	not soluble
MRLALADAGDTVEDANFVEAMADAGILRLYTWVEWVKEMLASCSSLRSGPADSFNDRVFASEMNAGIIKTDQNYEKMMFKEALKTGFFEFQAAKDKYRELATEGMHRELVFRFIEVQTILLTPFCPHLCEHIWTLLGKPDSIMHASWPVAGPVDESLIRSSQYLMEVAHDLRLRLKNYMMPAKGKKTDKQPAQRPSHCTIYVAKNYPAWQHITLTTLRSHFEANNGKLPDNKVIASELGSLPELKKYMKKVMPFVAMIKENMEKKGPRVLDLELEFDEQAVLMENIVYLTNSLELEHIDVKFASEAEDKVREECCPGKPLNVFRTEPGVPVSLINPQPSSGHFSTKIDIRQGDSCESIIRRLTKTDRGIKDLSKVKLMRFDDPLLGPRRVPVLGREHSEKTLISENAVFHVDLVSKKVHLTENGLRMDIGDTMVYLVH	not soluble
MSLTIFTKERKLLLAVESSCDETSVAVIEDGDKILSNIVASQIKSHQRFGGVVPEVASRHHVEQVTICIEEALTEAKVTPEELSGVAVTYGPGLVGALLIGLSAAKAFAWAHQLPLIPVNHMAGHIYAARFVAPLEFPLMALLVSGGHTELVYMKEDGSFEIVGETRDDAAGEAYDKVGRVLGLPYPSGKEIDALAHEGTDTYQFPRAMLKEDNYDFSFSGLKSAFINTVHNAEQRGEALSTKDLAASFQASVVEVLVTKTIRACQEYPVKQLLIAGGVAANQGLREAMRHAISEQLPAVTLLIPPLKLCGDNAAMIGAAAFIEAEKNHFASYNLNAEPGVSFMTISEEGEGHHHHHH	soluble
MRKIVLFGDSITAGYLDEAVSPVLVDLVKRDIAAMGLEEVAVINAGMPGDTTEDGLKRLNKEVLIEKPDEVVIFFGANDASLDRNITVATFRENLETMIHEIGSEKVILITPPYADSGRRPERPQTRIKELVKVAQEVGAAHNLPVIDLYKAMTVYPGTDEFLQADGLHFSQVGYELLGALIVREIKGRLKPKQA	soluble
MTRSVSHPPYADPFAHPPETSPQELTAQLTPGARFQDVRFENYRPNPEFPSQAQARDQLAEFVRQAGQKASGGGFWPFKRRAPEGRGFYLDGGFGVGKTHLLASAYHAAKGQSGGSGGDVAFMSFQDLMYLIGALGMPQAIETFRNYKLLLIDEFELDDPGNTHMANTFLGGLMPSGVSVVATSNTEPGALGAGRFNAEDFQRQIQGIADRFGPHRIDGPDYRQRGTEPAQPLSEAEFAAWLARQNPQTTALMTHAELNRALLSVHPSRFARVLEQVSGVAVTNLEPMPEQGEALRFVHFVDKVYDLGLSAAFTGVPLNALFDDIYRNGGYAKKYSRALSRLSEMLREARGLEHHHHHH	not soluble
MGKSSKPIQTTQNTTQTNAPPEWAKGIFERAAKDAMSFYNQGSGKAVYDGQRVAGLSDQTKNAINGLSNNTHNYDNNYLNGLATGQNSTSQNLKNMASGHEIGNNPYFKEALQNTLNKASDTINSSLAGAGRYGSGAHTGVLADELGSIATQALSQQYNQDVNNMMQANGMIDQANQNQLASANNFFQGQGQANLNALSGGGLLDANHQQQLDEERQKWEQQNNLDWDQLSKLLAAGTASAGNYGMQTEQRTQFTPQTKLNPWQTIGNVGTILGTFAGLSDRRAKENIREAGQKKGYTLYEYNYKGSPERYRGVMAQDVLRSNPEAVFYNNTTGLLHVDYDKLGFNMERVQ	not soluble
GAMEAEKEFITMLKENQVDSTWSFSRIISELGTRDPRYWMVDDDPLWKKEMFEKYLSNR	soluble
MKSVKEIRKSQVNSMISDQYEIFHVKDMVSPEKTIYHYHDFYEVHCTLKGVATFFLDGHQFDVEAGTVLLIHYHDLHRIIKQSTDDFERMYIFLTPDFLQQRSSKRTNLSACFQHFGQRRSKVIKVDVAKLANYLTPLDHSPLPEEYGADVRYEQQLLDFLIYLNQLVLKEENESQPKQMIENER	not soluble
MDVQDLKPPKPLYLERVGFRGVRRRALLETPEGPVTLDLELDVFVDLDRSKRGVHLSRNIEAVEAVVSERRARSIEGLLRSIAKELLSRHGYAEKATVRARTRYYIDLEAAGVKGREPVDVAVTVSLTRSGGERWRVAVSVKGMTVCPSAQSTIAEAEGISDPSRAPSHSQKVLLKGTVDTGKVMVRIEDLARALLQSFSAPTFTLLKKPQEARLILEAFTRPMFVEDVVREAAWRIAAIPYIPGEALLQVEAVSLESIHPHDLVAMLRSRVSEVRSLASRSV	not soluble
SLSARSSHLSQPVVKSVLVYRNGDPFYAGRRVVIHEKKVSSFEVFLKEVTGGVQAPFGAVRNIYTPRTGHRIRKLDQIQSGGNYVAGGQEAFKKLNYLDIGEIKKRPMEVVNT	soluble
MSLDEIKSGKYKHGDKLPTEKELMERFNASRETVRKALERLVVKNLVIRKPGLGTFVNIEKKNKVVGILVQQITSYIFPYIALGAEEVLFANGYKMLLGNASEDPHKERQIINEWLEVGVDGLIIDPVYSATKRSNRDLIEDMAKKGTKVVLVHTNWDIEGVGSVVLDDWYGGEKAAEIFYQYGHRNVAVLYKTIHLPSVVRAQAFLKRGRELGFEKVHEKSFHVSEFTGIVMQSAFELLSLPKDQRPTAVFCYNDATALQFFLAAKRMGLKIPEDVSVIGFDDAPIGDFREILTTFEHPKEEVGKKAVEILLKMIDGEKPEKYVFKPKLIMRESVTYPKEGHHHHHH	soluble
MGSDKIHHHHHHMQNWLKQITTGAMIGTTVLVTSACTMRLSESTFIASDEVPVAFTAEFTQQLQQAMPNHLITPLSLEASDHVKLNGFYIDNPNSLTTLVFYQGNGMKIEPHGLSVLTTLSTLNTDILVMDRRGLGASEGQPSINNIIADAQQQLDYLHQQYQPEKVILHGYSLGSFIAADLAKNNKIDALILHGSATNADDWVDEKTPWYMAPFMTLEMPEDFRKTDNKQVVAQYYQGPLLVIAAEEDEEVPPELSEKLFVASQSANKQLIMVPNVGHQGMLDDANTMSQYQTFITEL	not soluble
